According to US20160228502A1:
Several values for one entry are separate records, joined by “and”; a condition that tells them apart may be missing. Equal values may be shown once. One block for each substance: values may come before it.

What was measured:
[1] = target: SERCA1-CFP (rabbit) (UniProt P04191); experiment: AFRET in COS7 cells, SERCA1-CFP as donor
[2] = target: sAnk1-CFP; experiment: AFRET in COS7 cells, sAnk1-CFP as donor
[3] = target: sarco(endo)plasmic reticulum Ca^2+-ATPase 1 (SERCA1) (rabbit) (UniProt P04191); experiment: coIP with antibodies to SERCA1 from COS7 extracts, with or without FLAG-SLN
[4] = target: sarco(endo)plasmic reticulum Ca^2+-ATPase 1 (SERCA1) (rabbit) (UniProt P04191); experiment: amylose resin pull down from COS7 extracts expressing SERCA1, immunoblot densitometry
[5] = target: sarco(endo)plasmic reticulum Ca^2+-ATPase 1 (SERCA1) (rabbit) (UniProt P04191); experiment: coIP from COS7 extracts, densitometry
[6] = target: sarco(endo)plasmic reticulum Ca^2+-ATPase 1 (SERCA1) (rabbit) (UniProt P04191); experiment: coIP with antibodies to sAnk1 from COS7 extracts, densitometry
[7] = target: sarco(endo)plasmic reticulum Ca^2+-ATPase 1 (SERCA1) (rabbit) (UniProt P04191); experiment: cell-based or functional assay
[8] = target: sarco(endo)plasmic reticulum Ca^2+-ATPase 1 (SERCA1) (rabbit) (UniProt P04191); experiment: coIP with antibodies to SERCA1 from COS7 extracts, densitometry
[9] = target: SERCA1-CFP (rabbit) (UniProt P04191); experiment: AFRET in living COS7 cells
[10] = target: SLN-YFP (rabbit) (UniProt P42532); experiment: AFRET in COS7 cells
[11] = target: sarco(endo)plasmic reticulum Ca^2+-ATPase 1 (SERCA1) (rabbit) (UniProt P04191); experiment: coIP with antibodies to SERCA1 from COS7 extracts, densitometry, with FLAG-SLN coexpressed
[12] = target: SERCA1-CFP (rabbit) (UniProt P04191); experiment: AFRET in COS7 cells, FLAG-SLN cotransfected
[13] = target: SERCA1-CFP (rabbit) (UniProt P04191); experiment: AFRET in COS7 cells
[14] = target: SERCA1-CFP (rabbit) (UniProt P04191); experiment: AFRET (Δr=rCFP-rFRET) in COS7 cells

Sequence of SERCA1-CFP (rabbit) (P04191 whole entry): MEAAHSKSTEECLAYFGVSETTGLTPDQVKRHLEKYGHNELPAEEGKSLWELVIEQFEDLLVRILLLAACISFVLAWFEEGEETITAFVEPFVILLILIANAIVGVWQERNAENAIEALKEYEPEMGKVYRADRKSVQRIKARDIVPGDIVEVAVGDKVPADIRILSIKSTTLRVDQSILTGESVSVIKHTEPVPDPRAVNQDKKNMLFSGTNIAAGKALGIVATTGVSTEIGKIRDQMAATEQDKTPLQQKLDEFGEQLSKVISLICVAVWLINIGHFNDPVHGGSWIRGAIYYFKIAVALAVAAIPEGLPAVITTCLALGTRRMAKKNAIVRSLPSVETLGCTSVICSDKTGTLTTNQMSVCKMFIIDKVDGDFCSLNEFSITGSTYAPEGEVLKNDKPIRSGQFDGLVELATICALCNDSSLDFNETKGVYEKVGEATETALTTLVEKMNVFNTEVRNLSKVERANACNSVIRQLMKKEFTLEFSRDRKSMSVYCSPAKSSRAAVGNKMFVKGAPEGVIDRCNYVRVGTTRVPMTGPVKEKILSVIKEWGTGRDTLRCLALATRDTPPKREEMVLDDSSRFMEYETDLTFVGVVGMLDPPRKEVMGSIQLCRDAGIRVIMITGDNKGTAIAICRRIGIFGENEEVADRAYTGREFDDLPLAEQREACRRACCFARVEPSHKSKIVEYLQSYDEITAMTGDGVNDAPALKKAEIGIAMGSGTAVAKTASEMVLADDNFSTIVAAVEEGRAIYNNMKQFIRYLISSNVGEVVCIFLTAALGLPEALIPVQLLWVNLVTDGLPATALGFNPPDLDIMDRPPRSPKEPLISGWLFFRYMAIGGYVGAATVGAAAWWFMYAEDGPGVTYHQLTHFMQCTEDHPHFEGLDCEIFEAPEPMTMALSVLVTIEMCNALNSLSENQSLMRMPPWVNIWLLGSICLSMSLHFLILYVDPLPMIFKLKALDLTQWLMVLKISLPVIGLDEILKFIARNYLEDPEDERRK
Sequence of sarco(endo)plasmic reticulum Ca^2+-ATPase 1 (SERCA1) (rabbit) (P04191 whole entry): as above
Sequence of SLN-YFP (rabbit) (P42532 whole entry): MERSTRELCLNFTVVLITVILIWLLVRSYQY

AFRET Δrmean [9]: 0.017
Substance: sAnk1 (all-L)-YFP

AFRET Δrmean [10]: 0.03
Substance: sAnk1-CFP

AFRET Δrmean (cells cotransfected with FLAG-SLN) [12]: 0.036
AFRET Δrmean [13]: 0.021
AFRET Δrmean [9]: 0.043
AFRET Δrmean [14]: 0.026
Substance: sAnk1-YFP

Further lines, the substance ahead of its results:

Substance: dysferlin-YFP
AFRET Δrmean [1]: -0.035
AFRET Δrmean [2]: -0.028

Substance: sAnk1 (29-155)-FLAG
fold enhancement of the interaction in the presence of FLAG-SLN [3]: 2.7 fold

Substance: sAnk1 (29-155)-MBP fusion protein (from UniProt P0AEX9 27-392)
fold SERCA1 pulled down relative to the MBP control [4]: 9 fold

Substance: sAnk1 (all-L)
reduction in coIP, normalized to coIP of SERCA1 and sAnk1 (WT) [5]: 50% and 34% to 61% (2×)
percent of SERCA1 coimmunoprecipitated compared to WT [6]: 49%
KCa2+ ([Ca^2+] required for half-maximal activation) of SERCA1 Ca^2+-ATPase, COS7 microsomes [7]: 501 nM
KCa2+ in pCa^2+ units, SERCA1 Ca^2+-ATPase, COS7 microsomes [7]: 6.3 pCa^2+ units
Mean Kca (nM), Ca^2+-ATPase assay in COS7 microsomes, FIG. 6D [7]: 502 nM
Mean Kca (pCa), Ca^2+-ATPase assay in COS7 microsomes, FIG. 6D [7]: 6.3 pCa
ΔKCa2+ relative to SERCA1 Alone [7]: -0.02 pCa^2+ units
ΔKCa2+, COS7 microsomes [7]: -0.01 pCa^2+ units
percent of sAnk1 (all-L) coimmunoprecipitated compared to WT sAnk1 [8]: 49%

Substance: sAnk1-FLAG (C-terminal FLAG-tagged sAnk1)
HEK 293 mean Kca (nM), Ca^2+-ATPase assay [7]: 680 nM
HEK 293 mean Kca (pCa), Ca^2+-ATPase assay [7]: 6.17 pCa
KCa2+ ([Ca^2+] required for half-maximal activation) of SERCA1 Ca^2+-ATPase, COS7 microsomes, all assays compiled [7]: 759 nM
KCa2+ in pCa^2+ units, SERCA1 Ca^2+-ATPase, COS7 microsomes, all assays compiled [7]: 6.12 pCa^2+ units
Mean Kca (nM), Ca^2+-ATPase assay in COS7 microsomes, FIG. 6B [7]: 708 nM
Mean Kca (nM), Ca^2+-ATPase assay in COS7 microsomes, FIG. 6D [7]: 794 nM
Mean Kca (pCa), Ca^2+-ATPase assay in COS7 microsomes, FIG. 6B [7]: 6.15 pCa
Mean Kca (pCa), Ca^2+-ATPase assay in COS7 microsomes, FIG. 6D [7]: 6.1 pCa
shift of SERCA1's apparent Ca^2+ affinity, COS7 microsomes [7]: -0.18 pCa^2+ units
ΔKCa2+ in HEK293 microsomes [7]: -0.21 pCa^2+ units
ΔKCa2+ relative to SERCA1 Alone [7]: -0.2 pCa^2+ units
ΔKCa2+, COS7 microsomes, experiment with sAnk1 (all-L) [7]: -0.22 pCa^2+ units
fold increase in coIP with SERCA1 on addition of FLAG-SLN, against co-transfection of SERCA1 and sAnk1 alone [11]: 2.6 fold
